Measurements from article PMC4383175.

Assays:
[1] = biological target: Trypanosoma brucei haptoglobin-haemoglobin receptor, truncated N-terminal ligand-binding domain (residues 36-299) (Trypanosoma brucei brucei) (UniProt Q581F2); experiment: SPR
[2] = biological target: Native (dimeric) human haptoglobin-haemoglobin complex (Hp 1-1 with Hb) (human) (UniProt P00738); experiment: SEC-MALS
[3] = biological target: Native (dimeric) human haptoglobin-haemoglobin complex (Hp 1-1 with Hb) (human) (UniProt P00738); experiment: SEC-SAXS

Substance | Kd [1] [µM] | stoichiometry N (receptors per HpHb) [2] | stoichiometry N (receptors per HpHb) [3]
HpSPHb complex: serine protease domain of human haptoglobin (148-406) bound to a human haemoglobin alpha-beta dimer (from UniProt P00738 148-406) | 0.7 |  | 
HprSPHb complex: serine protease domain of human haptoglobin-related protein (90-348) bound to human haemoglobin (from UniProt P00739 90-348) | 1.7 |  | 
Trypanosoma brucei haptoglobin-haemoglobin receptor, truncated N-terminal ligand-binding domain (residues 36-299) (from UniProt Q581F2 36-299) |  | 2 | 2
